According to paper PMC6414702, “AtrR Is an Essential Determinant of Azole Resistance in Aspergillus fumigatus”:

What was measured:
[1] = biological target: T1, AtrR DNA-binding domain (AtrR-DBD) (Aspergillus fumigatus) (UniProt Q4WI89); experiment: EMSA; details: Biotin EMSA: 25 mM Tris-HCl pH 7.5, 80 mM NaCl, 35 mM KCl, 5 mM MgCl2, 10% glycerol, 1 ug poly(dI-dC), 20 ul, 0.1 ug AtrR-DBD, 20 pmol probe, room temperature …
T1 sequence: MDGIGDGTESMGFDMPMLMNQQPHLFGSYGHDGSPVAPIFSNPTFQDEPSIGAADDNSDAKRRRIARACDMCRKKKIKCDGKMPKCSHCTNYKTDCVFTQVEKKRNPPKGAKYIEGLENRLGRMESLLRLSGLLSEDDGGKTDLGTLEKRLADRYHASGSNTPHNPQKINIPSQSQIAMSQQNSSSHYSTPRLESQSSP

[2] = biological target: T2, AtrR DNA-binding domain (AtrR-DBD) (Aspergillus fumigatus, UniProt Q4WI89 1-199); experiment: competition; 10-fold excess over biotinylated 34-bp probe (12-fold in Methods); Biotin EMSA: 25 mM Tris-HCl pH 7.5, 80 mM NaCl, 35 mM KCl, 5 mM MgCl2, 10% glycerol, 1 ug poly(dI-dC), 20 ul, 0.1 ug AtrR-DBD, 20 pmol probe, room temperature 30 min; 32P EMSA and footprinting as in cited reference 40; details: protein: recombinant; chain copies: 2; blunt
T2 sequence: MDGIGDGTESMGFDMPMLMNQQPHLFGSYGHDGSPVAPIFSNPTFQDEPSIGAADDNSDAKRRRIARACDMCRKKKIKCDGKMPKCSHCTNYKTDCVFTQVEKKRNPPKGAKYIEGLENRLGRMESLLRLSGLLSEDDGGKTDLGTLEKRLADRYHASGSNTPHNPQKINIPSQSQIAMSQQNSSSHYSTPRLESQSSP

[3] = biological target: T2, AtrR DNA-binding domain (AtrR-DBD); experiment: EMSA; 5 mM Mg2+, poly(dI-dC); Biotin EMSA: 25 mM Tris-HCl pH 7.5, 80 mM NaCl, 35 mM KCl, 5 mM MgCl2, 10% glycerol, 1 ug poly(dI-dC), 20 ul, 0.1 ug AtrR-DBD, 20 pmol probe, room temperature 30 min; 32P EMSA and footprinting as in cited reference 40; details: protein: recombinant; chain copies: 2; label: 5' biotin on both strands; blunt

| Molecule | binding result [2] | also measured |
| --- | --- | --- |
| GAAAAAACTCATGAGTGAATAATCGCAGCACCACTCCAGAGTTGTCTAGAATCACGCGGTCCGGATGTGTGCTGAGCCGAATGAAAGTTGCCTAATTACTAAGGTGTAGTTCCAGCATACCATACACCCTAACTCATACTACGGTAGGTAGATCTACTTACCTATGAACCTATATTGGTAGGTAGGTGAATATAAAATACAGCATG (double strand) [cyp51A promoter PCR probe] | – | binding [1]: binds |
| EcoRI mutant competitor (dsDNA) DNA 1: GTTGTCTCAGAATCACGCGGTCCGGATGTGGAATTCGCCGAAT DNA 2: ATTCGGCGAATTCCACATCCGGACCGCGTGATTCTGAGACAAC | binds | – |
| cyp51A 42-bp wild-type competitor (dsDNA) DNA 1: GTTGTCTCAGAATCACGCGGTCCGGATGTGTGCTGAGCCGAAT DNA 2: ATTCGGCTCAGCACACATCCGGACCGCGTGATTCTGAGACAAC | binds | – |
| DM competitor (dsDNA) DNA 1: GAATCACGCGGTATTGATGTGTGCTGAGTATAAT DNA 2: ATTATACTCAGCACACATCAATACCGCGTGATTC | no binding | – |
| cyp51A 34-bp probe (dsDNA) DNA 1: GAATCACGCGGTCCGGATGTGTGCTGAGCCGAAT DNA 2: ATTCGGCTCAGCACACATCCGGACCGCGTGATTC | – | binding result [3]: binds |
| SphI mutant competitor (dsDNA) DNA 1: GTTGTCTCAGAATCACGCGGGCATGCTGTGTGCTGAGCCGAAT DNA 2: ATTCGGCTCAGCACACAGCATGCCCGCGTGATTCTGAGACAAC | no binding | – |
